Source: the RNAGym collection of RNA variant scans (doi:10.7554/elife.80360)

B1: HDV Ribozyme (parent)
chain: GGCCGGCAUGGUCCCAGCCUCCUCGCUGGCGCCGGCUGGGCAACAUUCCGAGGGGACCGUCCCCUCGGUAAUGGCGAAUGGGACCCA

Variants of: B1
Assay: self-cleavage, relative activity (ratio to wild type); higher = more cleavage; co-transcriptional

Row | Variant | self-cleavage
1 | GGCCGGCAUGGUCCCAGCCUCCUCGAUGGCGCCGGCUGGGCAACAUUCCGAGGGGACCGUCCCCUCGAUAAUGGCGAAUGGGACCCA [C26A G68A] | 1.08
2 | GGCCGGCAUGGUCCCAGCCUCCUCGGUGGCGCCGGCUGGGCUACAUUCCGAGGGGACCGUCCCCUCGGUAAUGGCGAAUGGGACCCA [C26G A42U] | 0.449
3 | GGCCGGCAUGGUCCCAGCCUCCUCGAUGGCGCCGGCUGGGCAACAUUCCGAGGGGACCGUCCCCUCAGUAAUGGCGAAUGGGACCCA [C26A G67A] | 1.01
4 | GGCCGGCAUGGUCCCAGCCUCCUCGGUGGCGCCGGCUGGGAAACAUUCCGAGGGGACCGUCCCCUCGGUAAUGGCGAAUGGGACCCA [C26G C41A] | 1.04
5 | GGCCGGCAUGGUCCCAGCCUCCUCGAUGGCGCCGGCUGGGCAACAUUCCGAGGGGACCGUCCCCUCGGUAAUGACGAAUGGGACCCA [C26A G74A] | 0.573
6 | GGCCGGCAUGGUCCCAGCCUCCUCGAUGGCGCCGGCUGGGCAACAUUCCGAGGGGACCGUCCCCUCGGUAAAGGCGAAUGGGACCCA [C26A U72A] | 0.692
7 | GGCCGGCAUGGUCCCAGCCUCCUCGGUGGCGCCGGCUGGGCAACAUUCCGUGGGGACCGUCCCCUCGGUAAUGGCGAAUGGGACCCA [C26G A51U] | 0.95
8 | GGCCGGCAUGGUCCCAGCCUCCUCGGUGGCGCCGGCUGGGCAACAUUCCGGGGGGACCGUCCCCUCGGUAAUGGCGAAUGGGACCCA [C26G A51G] | 0.997
9 | GGCCGGCAUGGUCCCAGCCUCCUCGGUGGCGCCGGCUGGGCAACAUUCCGAGGGGACCGUCCCCUCGGUAAUGGCGGAUGGGACCCA [C26G A77G] | 0.929
10 | GGCCGGCAUGGUCCCAGCCUCCUCGGUGGCGCCGGCUGGGCAACAUUCCGAGGGGACCGUCCCCUCGGUAAUGGCGUAUGGGACCCA [C26G A77U] | 0.447
11 | GGCCGGCAUGGUCCCAGCCUCCUCGAUGGCGCCGGCUGGGCAACAAUCCGAGGGGACCGUCCCCUCGGUAAUGGCGAAUGGGACCCA [C26A U46A] | 0.77
12 | GGCCGGCAUGGUCCCAGCCUCCUCGAUGGCGCCGGCUGGGCAACAGUCCGAGGGGACCGUCCCCUCGGUAAUGGCGAAUGGGACCCA [C26A U46G] | 0.86
13 | GGCCGGCAUGGUCCCAGCCUCCUCGGUGGCGACGGCUGGGCAACAUUCCGAGGGGACCGUCCCCUCGGUAAUGGCGAAUGGGACCCA [C26G C32A] | 0.326
14 | GGCCGGCAUGGUCCCAGCCUCCUCGGUGGCGGCGGCUGGGCAACAUUCCGAGGGGACCGUCCCCUCGGUAAUGGCGAAUGGGACCCA [C26G C32G] | 0.203
15 | GGCCGGCAUGGUCCCAGCCUCCUCGGUGGCGUCGGCUGGGCAACAUUCCGAGGGGACCGUCCCCUCGGUAAUGGCGAAUGGGACCCA [C26G C32U] | 0.743
16 | GGCCGGCAUGGUCCCAGCCUCCUCGAUGGCGCCGGCUGGGCAACAUUCCGAGGGGACCGUCCCCUCGGUAAUGGCGAAUGCGACCCA [C26A G81C] | 0.193
17 | GGCCGGCAUGGUCCCAGCCUCCUCGAUGGCGCCGGCUGGGCAACAUUCCGAGGGGACCGUCCCCUCGGUAAUGGCGAAUGUGACCCA [C26A G81U] | 0.519
18 | GGCCGGCAUGGUCCCAGCCUCCUCGAUGGCGCCGGCUGGGCAACAUUCCGAGGGGACCGUCCCCUCGGUAAUUGCGAAUGGGACCCA [C26A G73U] | 0.415
19 | GGCCGGCAUGGUCCCAGCCUCCUCGGUGGCGCCGGCUGGGCAACAUUCCGAGGGGUCCGUCCCCUCGGUAAUGGCGAAUGGGACCCA [C26G A56U] | 1.23
20 | GGCCGGCAUGGUCCCAGCCUCCUCGGUGGCGCCGGCUGGGCAACAUUCCGAGGGGCCCGUCCCCUCGGUAAUGGCGAAUGGGACCCA [C26G A56C] | 1.25
21 | GGCCGGCAUGGUCCCAGCCUCCUCGGUGGUGCCGGCUGGGCAACAUUCCGAGGGGACCGUCCCCUCGGUAAUGGCGAAUGGGACCCA [C26G C30U] | 0.415
22 | GGCCGGCAUGGUCCCAGCCUCCUCGGUGGAGCCGGCUGGGCAACAUUCCGAGGGGACCGUCCCCUCGGUAAUGGCGAAUGGGACCCA [C26G C30A] | 0.623

Row | Variant | self-cleavage
23 | GGCCGGCAUGGUCCCAGCCUCCUCGAUGGCGCCGGCUGGGCAACAUCCCGAGGGGACCGUCCCCUCGGUAAUGGCGAAUGGGACCCA [C26A U47C] | 0.646
24 | GGCCGGCAUGGUCCCAGCCUCCUCGGUGGCGCCGGCUGGGCAACAUUCCGAGGGGACCGUCGCCUCGGUAAUGGCGAAUGGGACCCA [C26G C62G] | 0.516
25 | GGCCGGCAUGGUCCCAGCCUCCUCGGUGGCGCCGGCUGGGCAACAUUCGGAGGGGACCGUCCCCUCGGUAAUGGCGAAUGGGACCCA [C26G C49G] | 0.87
26 | GGCCGGCAUGGUCCCAGCCUCCUCGGUGGCGCCGGCUGGGCAACAUUCUGAGGGGACCGUCCCCUCGGUAAUGGCGAAUGGGACCCA [C26G C49U] | 0.935
27 | GGCCGGCAUGGUCCCAGCCUCCUCGAUGGCGCCGGCUGGGCAACAUUCCGAGGGGACCGUCCCCUCGGGAAUGGCGAAUGGGACCCA [C26A U69G] | 1.15
28 | GGCCGGCAUGGUCCCAGCCUCCUCGAUGGCGCCGGCUGGGCAACAUUCCGAGGGGACCGUCCCCUCGGCAAUGGCGAAUGGGACCCA [C26A U69C] | 0.988
29 | GGCCGGCAUGGUCCCAGCCUCCUCGAUGGCGCCGGCUGGGCAACAUUCCGAGGGGACCGGCCCCUCGGUAAUGGCGAAUGGGACCCA [C26A U60G] | 1.2
30 | GGCCGGCAUGGUCCCAGCCUCCUCGAUGGCGCCGGCUGGGCAACAUUCCGAGGGGACCGCCCCCUCGGUAAUGGCGAAUGGGACCCA [C26A U60C] | 0.81
31 | GGCCGGCAUGGUCCCAGCCUCCUCGGUGGCGCCGGCUGGGCAUCAUUCCGAGGGGACCGUCCCCUCGGUAAUGGCGAAUGGGACCCA [C26G A43U] | 0.584
32 | GGCCGGCAUGGUCCCAGCCUCCUCGGUGGCGCCGGCUGGGCACCAUUCCGAGGGGACCGUCCCCUCGGUAAUGGCGAAUGGGACCCA [C26G A43C] | 0.437
33 | GGCCGGCAUGGUCCCAGCCUCCUCGAUGGCGCCGGCUGGGCAACAUUCCGAGGGGACCGUCCCCUCGGUAAUGGCGAACGGGACCCA [C26A U79C] | 0.469
34 | GGCCGGCAUGGUCCCAGCCUCCUCGAUGGCGCCGGCUGGGCAACAUUCCGAGGGGACCGUCCCCUCGGUAAUGGCGAAAGGGACCCA [C26A U79A] | 0.997
35 | GGCCGGCAUGGUCCCAGCCUCCUCGGUGGCGCCGGCUGGGCAACAUUCCGAGGGGACCGUCCCCUCGGUAUUGGCGAAUGGGACCCA [C26G A71U] | 0.612
36 | GGCCGGCAUGGUCCCAGCCUCCUCGGUGGCGCCGGCUGGGCAACAUUCCGAGGGGACCGUCCCCUCGGUACUGGCGAAUGGGACCCA [C26G A71C] | 0.85
37 | GGCCGGCAUGGUCCCAGCCUCCUCGGUGGCGCCGGCUGGGCAACAUUCCGAGGGGACCGUCCCCUCGGUAGUGGCGAAUGGGACCCA [C26G A71G] | 0.475
38 | GGCCGGCAUGGUCCCAGCCUCCUCGGUGGCGCCGGCUGGGCAACAUUCCGAGGGGACCGUCCCCUCGGUGAUGGCGAAUGGGACCCA [C26G A70G] | 0.665
39 | GGCCGGCAUGGUCCCAGCCUCCUCGAUGGCGCCGGCCGGGCAACAUUCCGAGGGGACCGUCCCCUCGGUAAUGGCGAAUGGGACCCA [C26A U37C] | 1.13
40 | GGCCGGCAUGGUCCCAGCCUCCUCGGUGGCGCCGGCUGGGCAACAUUCCGAGGGGACCGUCCCCUCGGUAAUGGCGAUUGGGACCCA [C26G A78U] | 0.401
41 | GGCCGGCAUGGUCCCAGCCUCCUCGGUGGCGCCGGCUGGGCAACAUUCCGAGGGGACCGUCCCCUCGGUAAUGGCGAGUGGGACCCA [C26G A78G] | 0.633
42 | GGCCGGCAUGGUCCCAGCCUCCUCGAUGGCGCCGGCUGGGCAACAUUCCGAGGGGACCGUCCCCUCGGUAAUGGCGAAUGGUACCCA [C26A G82U] | 0.317
43 | GGCCGGCAUGGUCCCAGCCUCCUCGAUGGCGCCGGCUGGGCAACAUUCCGAGGGGACCGUCCCCUCGGUAAUGGCGAAUGGCACCCA [C26A G82C] | 0.342
44 | GGCCGGCAUGGUCCCAGCCUCCUCGGUGGCGCCGGCUGGGCAACAUUCCGAGGGGACCGUCCCCUCGGUAAUGGCGAAUGGGACCCU [C26G A87U] | 0.976

Row | Variant | self-cleavage
45 | GGCCGGCAUGGUCCCAGCCUCCUCGAUGGCGCCGGCUGGGCAACAUUCCGAGGGGACCGUCCCCACGGUAAUGGCGAAUGGGACCCA [C26A U65A] | 0.966
46 | GGCCGGCAUGGUCCCAGCCUCCUCGGUGGCGCCGGCUGGGCAACAUUCCGAGGGGACGGUCCCCUCGGUAAUGGCGAAUGGGACCCA [C26G C58G] | 0.906
47 | GGCCGGCAUGGUCCCAGCCUCCUCGGUGGCGCCGGCUGGGCAACAUUCCGAGGGGACAGUCCCCUCGGUAAUGGCGAAUGGGACCCA [C26G C58A] | 1.06
48 | GGCCGGCAUGGUCCCAGCCUCCUCGGUGGCGCCGGCUGGGCAACAUUGCGAGGGGACCGUCCCCUCGGUAAUGGCGAAUGGGACCCA [C26G C48G] | 1.02
49 | GGCCGGCAUGGUCCCAGCCUCCUCGGUGGCGCCGGCUGGGCAACAUUUCGAGGGGACCGUCCCCUCGGUAAUGGCGAAUGGGACCCA [C26G C48U] | 0.877
50 | GGCCGGCAUGGUCCCAGCCUCCUCGGUGGCGCCGGCUGGGCAAAAUUCCGAGGGGACCGUCCCCUCGGUAAUGGCGAAUGGGACCCA [C26G C44A] | 0.554
51 | GGCCGGCAUGGUCCCAGCCUCCUCGGUGGCGCCGGCUGGGCAAGAUUCCGAGGGGACCGUCCCCUCGGUAAUGGCGAAUGGGACCCA [C26G C44G] | 0.554
52 | GGCCGGCAUGGUCCCAGCCUCCUCGAUGGCGCCGGCUGGGCAACAUUCCGAGGGAACCGUCCCCUCGGUAAUGGCGAAUGGGACCCA [C26A G55A] | 0.888
53 | GGCCGGCAUGGUCCCAGCCUCCUCGAAGGCGCCGGCUGGGCAACAUUCCGAGGGGACCGUCCCCUCGGUAAUGGCGAAUGGGACCCA [C26A U27A] | 0.749
54 | GGCCGGCAUGGUCCCAGCCUCCUCGAUGGCGCCGGCUGGGCAACAUUCCGAGGGGACCGUCCCCUCGGUAAUGGCUAAUGGGACCCA [C26A G76U] | 1.05
55 | GGCCGGCAUGGUCCCAGCCUCCUCGAUGGCGCCGGCUGGGCAACAUUCCGAGGGGACCGUCCCCUCGGUAAUGGCAAAUGGGACCCA [C26A G76A] | 1.03
56 | GGCCGGCAUGGUCCCAGCCUCCUCGAUGGCGCCGGCUGGGCAACAUUCCGAGGGGACCGUCCCCUCGGUAAUGGCCAAUGGGACCCA [C26A G76C] | 1.08
57 | GGCCGGCAUGGUCCCAGCCUCCUCGGUGGCGCCGGCUGGGCAACAUUCCGAGGGGACCGUCCACUCGGUAAUGGCGAAUGGGACCCA [C26G C63A] | 0.748
58 | GGCCGGCAUGGUCCCAGCCUCCUCGGUGGCGCCGGCUGGGCAACAUUCCGAGGGGACCGUCCUCUCGGUAAUGGCGAAUGGGACCCA [C26G C63U] | 0.743
59 | GGCCGGCAUGGUCCCAGCCUCCUCGGUGGCGCCGGCUGGGCAACAUUCCGAGGGGACCGUCCGCUCGGUAAUGGCGAAUGGGACCCA [C26G C63G] | 0.653
60 | GGCCGGCAUGGUCCCAGCCUCCUCGGUGGCGCUGGCUGGGCAACAUUCCGAGGGGACCGUCCCCUCGGUAAUGGCGAAUGGGACCCA [C26G C33U] | 0.867
61 | GGCCGGCAUGGUCCCAGCCUCCUCGAUGGCGCCGGCUGGGCAACAUUCCGAGGGGACCUUCCCCUCGGUAAUGGCGAAUGGGACCCA [C26A G59U] | 1.12
62 | GGCCGGCAUGGUCCCAGCCUCCUCGAUGGCGCCGGCUGGGCAACAUUCCGAGGGGACCCUCCCCUCGGUAAUGGCGAAUGGGACCCA [C26A G59C] | 0.944
63 | GGCCGGCAUGGUCCCAGCCUCCUCGGUGGCGCCGGCUGGGCAACAUUCCGAGGGGAGCGUCCCCUCGGUAAUGGCGAAUGGGACCCA [C26G C57G] | 1.04
64 | GGCCGGCAUGGUCCCAGCCUCCUCGGUGGCGCCGGGUGGGCAACAUUCCGAGGGGACCGUCCCCUCGGUAAUGGCGAAUGGGACCCA [C26G C36G] | 0.237
